Assay results published in patent US20250186597A1 (BRIGHT PEAK THERAPEUTICS, published 2025).
One block for each binder: values may come before it.

Assays:
[1] = molecular target: T1, recombinant biotinylated human FcRn (human, UniProt P55899 24-297; P61769 21-119, limits assumed, biotinylated (site not stated)); assay: AlphaLISA competition at pH 6; competitor: human IgG on acceptor beads
T1 construct: also called human neonatal Fc receptor (FcRn); human Fc neonatal receptor

[2] = molecular target: T2, IL-18R on HEK-Blue IL18R reporter cells (InvivoGen, #hkb-hmi118) (UniProt Q13478 19-541; O95256 20-599, limits assumed); assay: cell-based or functional assay
T2 sequence (looked up) 1: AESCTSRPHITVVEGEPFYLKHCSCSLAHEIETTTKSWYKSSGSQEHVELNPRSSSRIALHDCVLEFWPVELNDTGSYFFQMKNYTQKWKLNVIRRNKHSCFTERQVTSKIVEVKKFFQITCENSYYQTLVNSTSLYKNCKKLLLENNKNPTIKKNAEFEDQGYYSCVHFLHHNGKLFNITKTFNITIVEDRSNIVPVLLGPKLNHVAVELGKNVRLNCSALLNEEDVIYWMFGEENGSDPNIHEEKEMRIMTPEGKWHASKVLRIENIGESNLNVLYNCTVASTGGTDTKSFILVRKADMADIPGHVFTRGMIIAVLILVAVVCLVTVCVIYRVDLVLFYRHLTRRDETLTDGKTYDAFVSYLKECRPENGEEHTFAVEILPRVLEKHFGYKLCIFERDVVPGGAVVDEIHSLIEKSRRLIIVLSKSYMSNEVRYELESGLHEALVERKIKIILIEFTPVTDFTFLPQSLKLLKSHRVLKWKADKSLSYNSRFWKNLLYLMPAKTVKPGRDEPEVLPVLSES
T2 sequence (looked up) 2: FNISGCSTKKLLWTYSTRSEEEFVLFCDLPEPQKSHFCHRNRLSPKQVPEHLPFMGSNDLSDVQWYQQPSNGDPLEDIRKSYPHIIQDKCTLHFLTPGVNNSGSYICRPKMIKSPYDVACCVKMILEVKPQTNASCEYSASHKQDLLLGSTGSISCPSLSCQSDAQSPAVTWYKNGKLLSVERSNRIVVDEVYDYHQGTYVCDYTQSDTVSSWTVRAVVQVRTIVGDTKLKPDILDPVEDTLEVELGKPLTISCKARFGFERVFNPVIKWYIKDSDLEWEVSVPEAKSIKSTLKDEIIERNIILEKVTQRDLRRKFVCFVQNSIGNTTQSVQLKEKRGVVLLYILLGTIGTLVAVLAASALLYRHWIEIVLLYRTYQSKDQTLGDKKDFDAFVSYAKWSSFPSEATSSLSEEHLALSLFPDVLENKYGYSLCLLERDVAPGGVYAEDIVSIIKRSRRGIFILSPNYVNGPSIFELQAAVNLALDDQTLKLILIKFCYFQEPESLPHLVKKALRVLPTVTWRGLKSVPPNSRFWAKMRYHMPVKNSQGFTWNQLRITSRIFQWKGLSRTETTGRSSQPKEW

[3] = molecular target: T3, Biotinylated Recombinant Human PD-1/CD279-Fc Chimera, carrier-free, Biolegend #789406 (human, UniProt Q15116 25-167, biotinylated (site not stated)); assay: ELISA; antibody coated, biotinylated human PD-1-Fc titrated
T3 construct: Bought reagent; also called recombinant biotinylated human PD-1; human PD1/CD279 ligand; Fc part of the bought chimera not given; not described

[4] = molecular target: T4, His-tagged human PD1, R&D #8986-PD (human, UniProt Q15116 25-167); assay: BLI (Octet), antibody on AHC sensor, His-tagged human PD1 as analyte
T4 construct: Bought reagent; not shown: His tag

[5] = molecular target: T3, Biotinylated Recombinant Human …; assay: ELISA; antibody coated on the plate, biotinylated human PD-1-Fc titrated in solution (x axis), streptavidin-HRP, signal at 450 nm
[6] = molecular target: T5, recombinant Human Fc gamma RI/CD64 Protein (R&D systems, 1257-FC-050, CF) (human, UniProt P12314 16-288); assay: ELISA; antibody coated, Fc gamma receptor titrated
T5 construct: also called FcγRI/CD64; human Fc gamma receptor I (CD64)

[7] = molecular target: T6, recombinant Human Fc gamma RIIA/CD32a (H167) Protein (R&D systems, 9595-CD-050, CF) (human, UniProt P12318 36-218); assay: ELISA; antibody coated, Fc gamma receptor titrated
T6 construct: also called FcγRIIa/CD32a; human Fc gamma receptors IIa
T6 sequence (looked up): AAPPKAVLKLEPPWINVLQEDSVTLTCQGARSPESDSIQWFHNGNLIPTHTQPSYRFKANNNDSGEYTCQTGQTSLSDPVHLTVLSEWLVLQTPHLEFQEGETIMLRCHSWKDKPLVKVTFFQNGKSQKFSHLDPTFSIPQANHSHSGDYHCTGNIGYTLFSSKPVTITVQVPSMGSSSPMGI

[8] = molecular target: T7, recombinant Human Fc gamma RIIIA/CD16a Protein (R&D systems, 4325-FC-050; CF) (human, UniProt P08637 17-208, limits assumed); assay: ELISA; antibody coated, Fc gamma receptor titrated
T7 construct: also called FcγRIIIa/CD16; human Fc gamma receptor IIIa (CD16)

[9] = molecular target: T8, recombinant Human Fc gamma RIIB/CD32b Avi-tag Protein (R&D systems, AVI1875-050, CF) (human, UniProt P31994 46-217); assay: ELISA; antibody coated, Fc gamma receptor titrated
T8 construct: also called FcγRIIb/CD32b
T8 sequence (looked up): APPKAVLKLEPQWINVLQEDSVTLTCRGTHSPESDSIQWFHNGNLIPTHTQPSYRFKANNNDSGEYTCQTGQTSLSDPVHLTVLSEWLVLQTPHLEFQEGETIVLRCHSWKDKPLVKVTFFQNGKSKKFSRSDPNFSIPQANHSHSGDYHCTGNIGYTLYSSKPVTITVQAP

B1: Avelumab/Bavencio (antibody, human IgG1, lambda)
heavy: not shown
light: QSALTQPASVSGSPGQSITISCTGTSSDVGGYNYVSWYQQHPGKAPKLMIYDVSNRPSGVSNRFSGSKSGNTASLTISGLQAEDEADYYCSSYTSSSTRVFGTGTKVTVLGQPKANPTVTLFPPSSEELQANKATLVCLISDFYPGAVTVAWKADGSPVKAGVETTKPSKQSNNKYAASSYLSLTPEQWKSHRSYSCQVTHEGSTVEKTVAPTECS
notes: also called MSB-0010718C; PF-06834635
Kd [1]: 5.36 nM

B2: IL-18 polypeptide C192 (SEQ ID NO: 70; N-terminal G, E6K, V11I, C38A, M51G, K53A, T63A, C76A, C127A) (ligand)
chain: GYFGKLKSKLSIIRNLNDQVLFIDQGNRPLFEDMTDSDARDNAPRTIFIISGYADSQPRGMAVAISVKCEKISTLSAENKIISFKEMNPPDNIKDTKSDIIFFQRSVPGHDNKMQFESSSYEGYFLAAEKERDLFKLILKKEDELGDRSIMFTVQNED
EC50, HEK-Blue IL18R reporter assay [2]: 14 pM

B4: Durvalumab/Imfinzi (antibody, human IgG1, kappa)
heavy: EVQLVESGGGLVQPGGSLRLSCAASGFTFSRYWMSWVRQAPGKGLEWVANIKQDGSEKYYVDSVKGRFTISRDNAKNSLYLQMNSLRAEDTAVYYCAREGGWFGELAFDYWGQGTLVTVSSASTKGPSVFPLAPSSKSTSGGTAALGCLVKDYFPEPVTVSWNSGALTSGVHTFPAVLQSSGLYSLSSVVTVPSSSLGTQTYICNVNHKPSNTKVDKRVEPKSCDKTHTCPPCPAPEFEGGPSVFLFPPKPKDTLMISRTPEVTCVVVDVSHEDPEVKFNWYVDGVEVHNAKTKPREEQYNSTYRVVSVLTVLHQDWLNGKEYKCKVSNKALPASIEKTISKAKGQPREPQVYTLPPSREEMTKNQVSLTCLVKGFYPSDIAVEWESNGQPENNYKTTPPVLDSDGSFFLYSKLTVDKSRWQQGNVFSCSVMHEALHNHYTQKSLSLSPGK
light: EIVLTQSPGTLSLSPGERATLSCRASQRVSSSYLAWYQQKPGQAPRLLIYDASSRATGIPDRFSGSGSGTDFTLTISRLEPEDFAVYYCQQYGSLPWTFGQGTKVEIKRTVAAPSVFIFPPSDEQLKSGTASVVCLLNNFYPREAKVQWKVDNALQSGNSQESVTEQDSKDSTYSLSSTLTLSKADYEKHKVYACEVTHQGLSSPVTKSFNRGEC
notes: also called MEDI-4736
Kd [6]: 2.34 nM
Kd [7]: 160 nM
Kd [8]: 234 nM
Kd [9]: 233 nM
Kd [1]: 8.31 nM

B5: IL-18 polypeptide C142 (Y1M, E6K, V11I, C38A, K53A, T63A, C76A, C127A) (ligand)
chain: MFGKLKSKLSIIRNLNDQVLFIDQGNRPLFEDMTDSDARDNAPRTIFIISMYADSQPRGMAVAISVKCEKISTLSAENKIISFKEMNPPDNIKDTKSDIIFFQRSVPGHDNKMQFESSSYEGYFLAAEKERDLFKLILKKEDELGDRSIMFTVQNED
EC50, HEK-Blue IL18R reporter assay [2]: 0.02 pM

Further lines, results first:

Kd [3]: 0.0407 nM
Kd [4]: 23.5 nM
koff [4]: 0.0077 s⁻¹
kon [4]: 342000 M⁻¹ s⁻¹
EC50 (read off the curve) [5]: ~0.06 nM
B3: LZM-009 (antibody, V domains shown)
VH: QVQLVQSGAEVKKPGASVKVSCKASGYTFTSYYMYWVRQAPGQGLEWMGGVNPSNGGTNFNEKFKSRVTITADKSTSTAYMELSSLRSEDTAVYYCARRDYRYDMGFDYWGQGTTVTVSS
VL: EIVLTQSPATLSLSPGERATISCRASKGVSTSGYSYLHWYQQKPGQAPRLLIYLASYLESGVPARFSGSGSGTDFTLTISSLEPEDFATYYCQHSRELPLTFGTGTKVEIK
notes: full antibody with an Fc region (K248, EU numbering); also called anti-PD-1 antibody LZM-009

Kd [6]: 0.593 nM
Kd [8]: 1660 nM
Kd [1]: 7.45 nM
B6: Pembrolizumab/Keytruda (antibody, human IgG4 S228P, kappa)
heavy: not shown
light: EIVLTQSPATLSLSPGERATLSCRASKGVSTSGYSYLHWYQQKPGQAPRLLIYLASYLESGVPARFSGSGSGTDFTLTISSLEPEDFAVYYCQHSRDLPLTFGGGTKVEIKRTVAAPSVFIFPPSDEQLKSGTASVVCLLNNFYPREAKVQWKVDNALQSGNSQESVTEQDSKDSTYSLSSTLTLSKADYEKHKVYACEVTHQGLSSPVTKSFNRGEC
notes: also called Lambrolizumab; MK-3475
